Results taken from patent publication US20190010233A1.

What was measured:
[1] = biological target: cyno PD-L1^ECD-hFc protein (cyno) (UniProt G7PSE7); assay: ELISA, 10 nM mAb
[2] = biological target: human PD-L1^ECD-hFc protein (human) (UniProt Q9NZQ7); assay: ELISA, mAb concentration not given
[3] = biological target: hPD-L2 (human) (UniProt Q9BQ51); assay: ELISA, mAb concentration not given
[4] = biological target: human PD-L1^ECD-hFc protein (human) (UniProt Q9NZQ7); assay: ELISA, 30 nM mAb
[5] = biological target: human PD-L1^ECD-hFc protein (human) (UniProt Q9NZQ7); assay: ELISA, 0.041 nM mAb
[6] = biological target: cyno PD-L1^ECD-hFc protein (cyno) (UniProt G7PSE7); assay: ELISA, 0.041 nM mAb
[7] = biological target: full length cyno PD-L1 on cells (cyno) (UniProt G7PSE7); assay: FACS CHO-K1-cPD-L1, 11.11 nM mAb
[8] = biological target: full length cyno PD-L1 on cells (cyno) (UniProt G7PSE7); assay: FACS CHO-K1-cPD-L1, 10 nM mAb
[9] = biological target: human PD-L1^ECD-hFc protein (human) (UniProt Q9NZQ7); assay: ELISA, 0.001 nM mAb
[10] = biological target: cyno PD-L1^ECD-hFc protein (cyno) (UniProt G7PSE7); assay: ELISA, 0.001 nM mAb
[11] = biological target: full length human PD-L1 on cells (human) (UniProt Q9NZQ7); assay: FACS CHO-K1-hPD-L1, 10 nM mAb
[12] = biological target: full length human PD-L1 on cells (human) (UniProt Q9NZQ7); assay: FACS CHOK1-hPD-L1, 300 nM mAb
[13] = biological target: human PD-L1^ECD-hFc protein (human) (UniProt Q9NZQ7); assay: ELISA, 10 nM mAb
[14] = biological target: cyno PD-L1^ECD-hFc protein (cyno) (UniProt G7PSE7); assay: ELISA, 10 nM mAb; remark: listed apart in the source
[15] = biological target: human PD-L1^ECD-hFc protein (human) (UniProt Q9NZQ7); assay: ELISA, 0.0001 nM mAb
[16] = biological target: cyno PD-L1^ECD-hFc protein (cyno) (UniProt G7PSE7); assay: ELISA, 0.0001 nM mAb
[17] = biological target: full length cyno PD-L1 on cells (cyno) (UniProt G7PSE7); assay: FACS CHO-K1-cPD-L1, 0.03 nM mAb
[18] = biological target: full length human PD-L1 on cells (human) (UniProt Q9NZQ7); assay: FACS CHO-K1-hPD-L1, 100.00 nM mAb
[19] = biological target: full length cyno PD-L1 on cells (cyno) (UniProt G7PSE7); assay: FACS CHO-K1-cPD-L1, 0.001 nM mAb as printed (second such column)
[20] = biological target: full length human PD-L1 on cells (human) (UniProt Q9NZQ7); assay: FACS CHO-K1-hPD-L1, 0.1 nM mAb
[21] = biological target: full length human PD-L1 on cells (human) (UniProt Q9NZQ7); assay: FACS CHOK1-hPD-L1, 0.03 nM mAb
[22] = biological target: human PD-L1^ECD-hFc protein (human) (UniProt Q9NZQ7); assay: ELISA, 0.370 nM mAb
[23] = biological target: cyno PD-L1^ECD-hFc protein (cyno) (UniProt G7PSE7); assay: ELISA, 0.370 nM mAb
[24] = biological target: full length cyno PD-L1 on cells (cyno) (UniProt G7PSE7); assay: FACS CHO-K1-cPD-L1, 0.3 nM mAb
[25] = biological target: cyno PD-L1^ECD-hFc protein (cyno) (UniProt G7PSE7); assay: ELISA, 30 nM mAb
[26] = biological target: full length cyno PD-L1 on cells (cyno) (UniProt G7PSE7); assay: FACS CHO-K1-cPD-L1, 0.01 nM mAb
[27] = biological target: human PD-L1^ECD-hFc protein (human) (UniProt Q9NZQ7); assay: ELISA, 0.3 nM mAb
[28] = biological target: cyno PD-L1^ECD-hFc protein (cyno) (UniProt G7PSE7); assay: ELISA, 0.3 nM mAb
[29] = biological target: full length cyno PD-L1 on cells (cyno) (UniProt G7PSE7); assay: FACS CHO-K1-cPD-L1, 0.001 nM mAb
[30] = biological target: full length human PD-L1 on cells (human) (UniProt Q9NZQ7); assay: FACS CHOK1-hPD-L1, 30 nM mAb
[31] = biological target: full length cyno PD-L1 on cells (cyno) (UniProt G7PSE7); assay: FACS CHO-K1-cPD-L1, 30 nM mAb
[32] = biological target: human PD-L1^ECD-hFc protein (human) (UniProt Q9NZQ7); assay: ELISA, 1 nM mAb
[33] = biological target: cyno PD-L1^ECD-hFc protein (cyno) (UniProt G7PSE7); assay: ELISA, 1 nM mAb
[34] = biological target: full length cyno PD-L1 on cells (cyno) (UniProt G7PSE7); assay: FACS CHO-K1-cPD-L1, 1.23 nM mAb
[35] = biological target: full length cyno PD-L1 on cells (cyno) (UniProt G7PSE7); assay: FACS CHO-K1-cPD-L1, 3.70 nM mAb

Sequence of cyno PD-L1^ECD-hFc protein (cyno) (G7PSE7 entry or part of it limits assumed): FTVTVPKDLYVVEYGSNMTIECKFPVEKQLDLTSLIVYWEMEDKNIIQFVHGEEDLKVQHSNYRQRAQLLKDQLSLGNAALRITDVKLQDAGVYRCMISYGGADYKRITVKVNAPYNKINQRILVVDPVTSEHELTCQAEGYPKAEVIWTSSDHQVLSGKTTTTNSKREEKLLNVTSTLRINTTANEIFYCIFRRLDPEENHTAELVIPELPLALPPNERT
Sequence of full length cyno PD-L1 on cells (cyno) (G7PSE7 entry or part of it limits assumed): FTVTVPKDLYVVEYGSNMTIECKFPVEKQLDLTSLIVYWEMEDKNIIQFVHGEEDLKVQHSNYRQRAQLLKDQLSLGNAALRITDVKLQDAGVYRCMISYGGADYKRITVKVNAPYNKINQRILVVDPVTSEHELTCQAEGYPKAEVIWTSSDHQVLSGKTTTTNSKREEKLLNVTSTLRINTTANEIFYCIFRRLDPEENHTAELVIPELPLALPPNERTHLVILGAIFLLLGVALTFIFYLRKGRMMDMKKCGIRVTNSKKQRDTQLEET
Sequence of human PD-L1^ECD-hFc protein (human) (Q9NZQ7 19-239): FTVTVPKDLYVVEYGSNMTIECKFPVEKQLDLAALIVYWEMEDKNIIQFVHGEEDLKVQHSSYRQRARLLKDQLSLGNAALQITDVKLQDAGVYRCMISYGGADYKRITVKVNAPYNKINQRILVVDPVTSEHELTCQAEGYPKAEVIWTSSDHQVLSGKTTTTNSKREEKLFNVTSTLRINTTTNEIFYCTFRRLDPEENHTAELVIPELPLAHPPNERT
Sequence of full length human PD-L1 on cells (human) (Q9NZQ7 19-290 limits assumed): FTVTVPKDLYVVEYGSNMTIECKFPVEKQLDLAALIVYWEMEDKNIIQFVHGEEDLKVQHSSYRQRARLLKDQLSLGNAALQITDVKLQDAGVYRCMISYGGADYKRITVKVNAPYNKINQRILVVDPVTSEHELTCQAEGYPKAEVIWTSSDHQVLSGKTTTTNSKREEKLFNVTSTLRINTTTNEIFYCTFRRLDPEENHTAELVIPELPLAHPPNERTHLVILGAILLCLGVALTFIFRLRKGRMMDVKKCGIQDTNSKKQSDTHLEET
Sequence of hPD-L2 (human) (Q9BQ51 20-219 limits assumed): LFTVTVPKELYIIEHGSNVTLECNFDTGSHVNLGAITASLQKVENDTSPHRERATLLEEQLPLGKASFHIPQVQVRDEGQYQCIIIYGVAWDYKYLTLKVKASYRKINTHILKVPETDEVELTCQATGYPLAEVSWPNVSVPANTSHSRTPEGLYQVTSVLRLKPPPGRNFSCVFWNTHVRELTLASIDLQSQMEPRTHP

OD450 nm [1]: 0.134
OD450 nm [2]: 0.206
OD450 nm [3]: 0.189
OD450 nm [4]: 0.12
OD450 nm [5]: 0.11
OD450 nm [6]: 0.11
Mean fluorescence intensity [7]: 2.93
Mean fluorescence intensity [8]: 1.95
OD450 nm [9]: 0.149
OD450 nm [10]: 0.0972
Mean fluorescence intensity [11]: 2.73
Mean fluorescence intensity [12]: 4.86
OD450 nm [13]: 0.225
OD450 nm [14]: 0.15
OD450 nm [15]: 0.162
OD450 nm [16]: 0.0988
Mean fluorescence intensity [17]: 3.79
Mean fluorescence intensity [18]: 2.7
Mean fluorescence intensity [19]: 7.33
Mean fluorescence intensity [20]: 2.55
Mean fluorescence intensity [21]: 2.92
OD450 nm [22]: 0.12
OD450 nm [23]: 0.12
Mean fluorescence intensity [24]: 3.73
OD450 nm [25]: 0.306
Mean fluorescence intensity [26]: 1.87
OD450 nm [27]: 0.293
OD450 nm [28]: 0.28
Mean fluorescence intensity [29]: 1.9
Mean fluorescence intensity [30]: 5.73
Mean fluorescence intensity [31]: 4.12
OD450 nm [32]: 0.157
OD450 nm [33]: 0.0989
Mean fluorescence intensity [34]: 2.82
Mean fluorescence intensity [35]: 2.73
Substance: IgG control (human IgG) (antibody)
